According to patent US20220041658A1 (PROTAGONIST THERAPEUTICS, published 2022):
Positions of bridges follow the written chain, without caps; N, C: chain ends. Non-standard residues stand in square brackets, D forms with d. Trp(7-Me) = Cc1cccc2c(C[C@H](N)C(=O)O)c[nH]c12; 2Nal = N[C@@H](Cc1ccc2ccccc2c1)C(=O)O; Pen = CC(C)(S)[C@H](N)C(=O)O; αMeK = C[C@](N)(CCCCN)C(=O)O

T1: interleukin-23 receptor (IL-23R) (human, UniProt Q5VWK5 24-629)
T1 sequence (looked up): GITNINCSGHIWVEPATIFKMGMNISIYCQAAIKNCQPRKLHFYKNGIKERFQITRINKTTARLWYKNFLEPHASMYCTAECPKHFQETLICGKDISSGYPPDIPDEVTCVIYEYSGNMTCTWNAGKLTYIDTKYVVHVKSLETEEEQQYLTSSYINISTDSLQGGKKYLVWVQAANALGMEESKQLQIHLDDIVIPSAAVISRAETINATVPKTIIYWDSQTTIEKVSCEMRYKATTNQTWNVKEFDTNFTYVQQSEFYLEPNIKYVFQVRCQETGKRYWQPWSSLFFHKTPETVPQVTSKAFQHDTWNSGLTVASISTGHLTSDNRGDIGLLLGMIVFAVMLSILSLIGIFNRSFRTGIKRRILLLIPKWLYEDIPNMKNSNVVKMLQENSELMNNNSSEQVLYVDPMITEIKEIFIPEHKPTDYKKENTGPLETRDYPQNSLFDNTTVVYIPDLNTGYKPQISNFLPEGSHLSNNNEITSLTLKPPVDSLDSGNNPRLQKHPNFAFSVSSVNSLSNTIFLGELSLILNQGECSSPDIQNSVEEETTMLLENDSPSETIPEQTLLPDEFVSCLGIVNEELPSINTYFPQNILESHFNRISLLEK


What was measured:
[1] = molecular target: T1, interleukin-23 receptor (IL-23R); experiment: cell-based or functional assay
[2] = molecular target: T1, interleukin-23 receptor (IL-23R); experiment: cell-based or functional assay; remark: listed apart in the source

Row | pStat3 HTRF IC50 [1] [nM] | NK Cell Assay IC50 [2] [nM] | Binder
1 | 1.91 | 5.12 | Ac-[Pen]NT[Trp(7-Me)]K(Ac)[Pen][2Nal][2Nal][αMeK]K(Ac)N[dL]-NH2 (disulfide 1-6 (inferred)) [Peptide of SEQ ID NO: 289]
2 | 2.45 | 11 | Ac-[Pen]NT[Trp(7-Me)]K(Ac)[Pen]H[2Nal][αMeK]K(Ac)N[dL]-NH2 (disulfide 1-6 (inferred)) [Peptide of SEQ ID NO: 290]
